Source: PMC9712689

What was measured:
[1] = biological target: RlpA-Δ32, fluorescently labeled (P. aeruginosa PAO1) (UniProt Q9X6V6); assay: MST
[2] = biological target: RlpA-Δ32·MltF2 complex (MST) (P. aeruginosa PAO1) (UniProt Q9X6V6); assay: MST
[3] = biological target: RlpA-SPOR (P. aeruginosa PAO1) (UniProt Q9X6V6); assay: SPR
[4] = biological target: RlpA-Δ32 (P. aeruginosa PAO1) (UniProt Q9X6V6); assay: SPR
[5] = biological target: RlpA-SPOR (P. aeruginosa PAO1) (UniProt Q9X6V6); assay: ITC
[6] = biological target: cross-linked RlpA-Δ32·MltF2 complex (SPR chip) (P. aeruginosa PAO1) (UniProt Q9X6V6); assay: SPR

| Substance | Kd [1] [nM] | Kd [2] [nM] | Kd [3] [nM] | koff [3] [s⁻¹] | kon [3] [M⁻¹ s⁻¹] | Kd [4] [nM] | koff [4] [s⁻¹] | kon [4] [M⁻¹ s⁻¹] | Kd [5] [nM] | stoichiometry N [5] | Kd [6] [nM] | koff [6] [s⁻¹] | kon [6] [M⁻¹ s⁻¹] |
| --- | --- | --- | --- | --- | --- | --- | --- | --- | --- | --- | --- | --- | --- |
| SltB3 (enzyme) | 92 | 390 | 2140 | 0.00079 | 370 | 140 | 0.00079 | 5500 | 79 | 1 |  |  |  |
| PBP1b (enzyme) | 16 | 57 |  |  |  | 55 | 0.0005 | 9100 |  |  |  |  |  |
| PBP1a (from UniProt Q07806 27-822) (enzyme) |  |  |  |  |  |  |  |  |  |  | 280 | 0.0048 | 51700 |
